Experimental data published in patent publication US20190031754A1 (Scripps Research, published 2019).
Read-outs that look alike come from different tables or passages of the source.

T1: human CD20 on HEK293 cells (Retrogenix array) (human, UniProt P11836 1-297)
T1 construct: whole, on cells
T1 sequence (looked up): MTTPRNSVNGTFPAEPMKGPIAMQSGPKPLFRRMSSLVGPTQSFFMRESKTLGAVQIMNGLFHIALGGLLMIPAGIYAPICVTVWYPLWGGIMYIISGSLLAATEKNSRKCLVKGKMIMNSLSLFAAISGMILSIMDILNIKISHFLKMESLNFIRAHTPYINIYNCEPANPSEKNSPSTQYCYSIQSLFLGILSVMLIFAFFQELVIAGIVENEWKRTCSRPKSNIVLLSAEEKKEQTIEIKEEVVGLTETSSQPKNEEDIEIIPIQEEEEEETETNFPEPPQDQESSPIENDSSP


Columns and labels:
[1] = biological target: T1, human CD20 on HEK293 cells (Retrogenix …); assay: Retrogenix cell microarray, identical slides of fixed HEK293 cells, AlexaFluor647 anti-human IgG Fc
[2] = biological target: T2, full-length human ROR2 on cells (human, UniProt Q01974 34-943); assay: flow cytometry, T47D cells (endogenous hROR2), IgG 100 ng/100 µL, anti-human Fc APC
T2 construct: whole, on cells; the cells are named under assay; In the Western blot it is denatured; also called hROR2; cell surface human ROR2

Fr = biological target: T3, Fr (human); assay: flow cytometry, HEK 293F cells displaying the construct, IgG1 1 µg/mL, APC (binding) against PE (expression); on Vec cells Q2 1.86
T3 construct: isolated domain;transmembrane segment; also called HA-Fr

[3] = biological target: T4, hROR2-T245 extracellular domain displayed on HEK 293F cells (human, UniProt Q01974 55-394; P09619 513-561); assay: as above
T4 construct: range 55-394;range 513-561; also called complete ECD

Fr+Ki = Fr+Ki (human); assay: as above
Ig+Fr [4] = biological target: T5, Ig+Fr (human); assay: as above
T5 construct: two-domain fragment;transmembrane segment; also called HA-Ig+Fr

Ig [5] = biological target: T6, Ig; assay: as above
T6 construct: transmembrane segment; also called HA-Ig

Ki = biological target: T7, Ki (human); assay: as above
T7 construct: isolated domain;transmembrane segment; also called HA-Ki

[6] = biological target: T8, recombinant human twin strep-tagged ROR2 extracellular domain (human, UniProt Q01974 34-403); assay: ELISA, IgG titrated on coated twin-strep human ROR2 ECD; fit printed as IC50
T8 construct: extracellular domain; Made in HEK293T, Streptactin purified; also called Human ROR2-TwinStrep; human ROR2

[7] = biological target: T9, recombinant cynomolgus twin strep-tagged ROR2 extracellular domain (cynomolgus monkey, UniProt A0A7N9D5U8 34-403); assay: ELISA, IgG titrated on coated twin-strep cynomolgus ROR2 ECD; fit printed as IC50
T9 construct: extracellular domain; Made in HEK293T, Streptactin purified; also called cynomolgus ROR2; cynomolgus ROR2-TwinStrep

[8] = biological target: T10, anti-human Fc (Jackson ImmunoResearch, 109-006-008); assay: ELISA, IgG titrated on coated anti-human Fc; fit printed as IC50
T10 construct: Coated on a control plate to capture the chimeric IgG1 antibodies through their human Fc; also called IgG

[9] = biological target: T10, anti-human Fc (Jackson ImmunoResearch, …); assay: as above; remark: listed apart in the source
[10] = biological target: T8, recombinant human twin strep-tagged …; assay: ELISA, IgG titrated on coated twin-strep human ROR2 ECD; fit printed as IC50; remark: listed apart in the source
[11] = biological target: T11, recombinant murine twin strep-tagged ROR2 extracellular domain (mouse, UniProt Q9Z138 34-403); assay: ELISA on coated twin-strep mouse ROR2 ECD (FIG. 14B); patent's own reading of the ELISA curves on coated mouse ROR2 (FIG. 14, panel B)
T11 construct: extracellular domain; Made in HEK293T, Streptactin purified; also called mouse ROR2; murine ROR2

[12] = biological target: T4, hROR2-T245 extracellular domain …; assay: flow cytometry, HEK 293F cells displaying the construct, IgG1 1 µg/mL, APC (binding) against PE (expression); on Vec cells Q2 6.53 and 73.5 in the PE- APC+ quadrant
Ig+Fr [13] = biological target: T5, Ig+Fr; assay: as above
Ig [14] = biological target: T6, Ig; assay: as above
[15] = biological target: T11, recombinant murine twin strep-tagged …; assay: ELISA, IgG titrated on coated twin-strep mouse ROR2 ECD; fit printed as IC50
[16] = biological target: T9, recombinant cynomolgus twin …; assay: SPR, Biacore T200, IgG captured by anti-human Fcγ, ROR2-TwinStrep as analyte, 1:1 Langmuir
[17] = biological target: T8, recombinant human twin strep-tagged …; assay: as above

T11 sequence (Q9Z138 other isoform, or with tags, fused parts or gaps): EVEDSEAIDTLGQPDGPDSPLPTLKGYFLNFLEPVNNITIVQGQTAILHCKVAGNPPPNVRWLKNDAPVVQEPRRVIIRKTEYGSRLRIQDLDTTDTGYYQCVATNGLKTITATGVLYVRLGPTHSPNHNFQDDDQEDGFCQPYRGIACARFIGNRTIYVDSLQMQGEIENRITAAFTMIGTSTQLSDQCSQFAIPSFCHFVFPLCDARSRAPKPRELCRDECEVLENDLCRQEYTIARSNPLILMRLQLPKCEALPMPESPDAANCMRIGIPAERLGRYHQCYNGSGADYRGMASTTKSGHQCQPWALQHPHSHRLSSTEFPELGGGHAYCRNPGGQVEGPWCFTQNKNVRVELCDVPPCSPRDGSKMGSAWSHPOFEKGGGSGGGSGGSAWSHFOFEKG
Sequence of Fr+Ki (human) (chain, as listed by the source): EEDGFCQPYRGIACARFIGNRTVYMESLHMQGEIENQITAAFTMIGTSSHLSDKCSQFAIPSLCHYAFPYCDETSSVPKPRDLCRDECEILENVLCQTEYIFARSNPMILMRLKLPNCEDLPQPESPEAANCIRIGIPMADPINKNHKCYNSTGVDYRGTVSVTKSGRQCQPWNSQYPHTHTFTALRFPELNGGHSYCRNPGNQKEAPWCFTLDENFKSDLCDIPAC

Binder	IC50 [6]	IC50 [7]	IC50 [8]	IC50 [9]	IC50 [10]	binding result [11]	further results
chimeric rabbit/human IgG1 XBR2-401 (antibody, V domains shown) VH: QSVKESEGGLFKPTDTLTLTCTVSGFSLSSYGVTWVRQAPGSGLEWIGYINTAGNTYYASWAKSRSTITRNTNENTVTLKMTSLTAADTATYFCARDWTSLNIWGPGTLVTVSS VL: DPMLTQTPSSTSTAVGDTVTIKCQASQSISSDLSWYQQKPGQRPKLLIYQASTLASGVPSRFKGSGYGTEYTLTISGVQREDAAIYYCLGGYADASYRTAFGGGTKLEIK	–	–	–	–	–	–	binding result [1]: no binding (tested: 20 µg/mL)
XBR2-TOP72 (IgG) (antibody, V domains shown, also called chimeric rabbit/human IgG1 XBR2-TOP72) VH: QEQLEESGGRLVTPGTPLTLTCTVSGIDLSSNAMSWVRQAPGKGLEYVGFINGGGGVHYASWARGRFTISKTSTTVDLKITSPTTEDTATYFCARAGTTYYTSFNLWGPGTLVTISS VL: QFVLTQSPSASAALGSSAKLTCTLSSAHKTYTIAWYQQQQGEAPRLLMMLRTDGSYTKGTGVPDRFSGSSSGADRYLIISSVQADDAAGYYCGADYSGGYVFGGGTQLTVTG	–	–	–	–	–	–	binding result [2]: binds
IgG1 XBR2-416 (antibody, V domains shown, also called chimeric rabbit/human IgG1 XBR2-416) VH: QEQLEESGGRLVTPGTPLTLTCTVSGFSLSSYWMSWVRQAPGKGLEWIGTITPGGNTDYATWAKARFTVSKTSTTVDLKITSPTTEDTATYFCARGIGGAADLWGPGTLVTISS VL: AQVLTQTPSSTSAAVGGTVTIKCQASQSISSSDLSWYQQKPGQPPKLLIYATSYLASGVPSRFKGSGSGTEYTLTISGVQREDAATYYCLGGYPNTSYRSAFGGGTKVEIK	–	–	–	–	–	–	cells in quadrant Q2 (PE+ APC+) (Fr): 4.05%; cells in quadrant Q2 (PE+ APC+) [3]: 55.9%; cells in quadrant Q2 (PE+ APC+) (Fr+Ki): 69.7%; cells in quadrant Q2 (PE+ APC+) (Ig+Fr [4]): 3.9%; cells in quadrant Q2 (PE+ APC+) (Ig [5]): 3.22%; cells in quadrant Q2 (PE+ APC+) (Ki): 90.2%
ERR2-316 (mAb005) (antibody, human IgG1, V domains shown, Full-length chimeric rabbit/human IgG1, human IgH-gamma1 and IgL-kappa constant regions; C-terminal tags HC: LPETG-Strep, LC: G5SLPETG-Strep; also called mAb0005) VH: QKQLVESGGRLVTPGGSLTLTCTVSGFSLSKYGVSWVRQAPGSGLEYIGTIGGSGTSYYASWAKSRSTITRNTNLNTVTLKMTSLTAADTATYFCARYFGWNTGFDIWGPGTLVTISS VL: DPVMTQTPSSVSEPVGGTVTIKCQASQSISNALAWYQQKPGQPPKRLIYKASTPASGVPSRFKGSRSGTEYTLTISGVQREDAATYYCLGFSVVSNDGWAFGAGTNVEIK	0.0407 µg/mL	0.044 µg/mL	0.04 µg/mL	0.0112 µg/mL	0.0299 µg/mL	no binding (tested: 0.5 µg/mL highest concentration)	–
IgG1 XBR2-433 (antibody, V domains shown) VH: QSVKESEGGLFKPTDTLTLTCTVSGFSLSTYGVSWVRQAPGNGLEWIGAIGSSGSANYASWAKDRSTITRNTNLNTVTLKMTSLTAADTATYFCARDGYYSSGWGPYFNIWGPGTLVTISS VL: SFVLTQPASVQVNLGQTVSLTCTADTLSRSYASWYQQKPGQAPVLLIYRDTSRPSGVPDRFSGSSSGNTATLTISGAQAGDEADYYCATSGGSGSNPQYVFGGGTQLTVTG	–	–	–	–	–	–	cells in quadrant Q2 (PE+ APC+) [12]: 90.6%; cells in quadrant Q2 (PE+ APC+) (Ig+Fr [13]): 50.7%; cells in quadrant Q2 (PE+ APC+) (Ig [14]): 67%
ERR2-Top35 (mAb130) (antibody, V domains shown) VH: QSVKESEGGLFKPMDTLTLTCTVSGFSLNTYGVSWVRQAPGNGLEWIGAVGSSGATNYASWAKSRSTITRNTNENTVTLKMTSLTAADTATYFCARDGYYSSGWGPYFSIWGPGTLVTVSS VL: SFVLTQPASVQVNLGQTVSLTCTAETLRSSYASWYQQKPGQAPVLLIYRDTSRPSGVPDRFSGSSSGNTATLTISGAQAGDEADYYCATSDGSGSRYYVFGGGTQLTVTG	0.0462 µg/mL	0.0531 µg/mL	0.0419 µg/mL	0.0143 µg/mL	0.0244 µg/mL	–	IC50 [15]: 0.0173 µg/mL
ERR2-308 (mAb037) (antibody, human IgG1, V domains shown, Full-length chimeric rabbit/human IgG1, human IgH-gamma1 and IgL-kappa constant regions; C-terminal tags HC: LPETG-Strep, LC: G5SLPETG-Strep) VH: QEQLEESGGRLVTPGTPLTLTCAVSGFSLSNYAMGWVRQAPGEGLEYIGWISAGGGAYYASWVNGRFTISKTSSTVDLKMTSLTAADTATYFCARGASNGCDLWGPGTLVTVSS VL: DPMLTQTPSSVSAVVGGTVTIKCQASQSITSWLSWYQQKPGQPPKLLIYGASHLASGVPSRFKGSGYGTEFTLTISGIQREDAATYYCLGGYSNSDIVFGGGTELEIL	0.0186 µg/mL	0.0046 µg/mL	0.0336 µg/mL	0.0167 µg/mL	0.467 µg/mL	no binding (tested: 0.5 µg/mL highest concentration)	Kd [16]: 5.4 nM; koff [16]: 0.000127 s⁻¹; kon [16]: 23800 M⁻¹ s⁻¹; Kd [17]: 11.2 nM; koff [17]: 0.000153 s⁻¹; kon [17]: 13700 M⁻¹ s⁻¹
ERR2-317 (mAb006) (antibody, human IgG1, V domains shown, Full-length chimeric rabbit/human IgG1, human IgH-gamma1 and IgL-kappa constant regions; C-terminal tags HC: LPETG-Strep, LC: G5SLPETG-Strep) VH: QSLEESGGRLVTPGTPLTLTCTASGFSLSSYDMIWVRQAPGKGLEYIGIINAGGNTYYASWAKGRFTISRTSTTVDLKMTSPTTEDTATYFCARGSSWTGDIWGPGTLVTVSS VL: DPVLTQTPSSTSAAVGGTVTIKCQASQSISSYLSWYQQKPGQPPKQLIYAASTLASGVPSRFKGSGSGTEYTLTISGVQREDAATYYCLGGYASASYQTAFGGGTKVEIK	0.0168 µg/mL	0.019 µg/mL	0.0391 µg/mL	0.0084 µg/mL	1.35 µg/mL	no binding (tested: 0.5 µg/mL highest concentration)	–
ERR2-302 (mAb004) (antibody, human IgG1, V domains shown, Full-length chimeric rabbit/human IgG1, human IgH-gamma1 and IgL-lambda constant regions; C-terminal tags HC: LPETG-Strep, LC: G5SLPETG-Strep) VH: QKQLVESGGGLVKPGGSLTLTCTVSGFSLSSYAIGWVRQAPGNGLEWIGIINSYGSTYYASWAKSRSTITRNTNLNTVTLKMTSLTAADTATYFCARSPYGYVSAWGYHRLDLWGQGTLVTISS VL: SYELTQLPSVSVSLGQTARITCGGASIGSKVVHWYQQKPGLAPGLLIYDDDERPSGVPDRFSGSNSGDTATLTISGAQAGDEAEYYCQLWDGSDVVFGGGTQLTVTG	0.0055 µg/mL	0.0071 µg/mL	0.0322 µg/mL	0.0134 µg/mL	0.102 µg/mL	–	IC50 [15]: 0.0606 µg/mL; Kd [16]: 48.6 nM; koff [16]: 0.00527 s⁻¹; kon [16]: 108000 M⁻¹ s⁻¹; Kd [17]: 52.4 nM; koff [17]: 0.0056 s⁻¹; kon [17]: 107000 M⁻¹ s⁻¹
